Measurements: PMC6056499, “A systematic dissection of sequence elements determining β-Klotho and FGF interaction and signaling” (Scientific Reports, 2018)

Molecular target: human β-Klotho extracellular domain (aa1–992) fused with a 6 × His tag at the C-terminus (UniProt Q86Z14)
Assay: solid-phase binding assay
Conditions: parent: est. 1.0; read off a plot

human β-Klotho extracellular domain (aa1–992) fused with a 6 × His tag at the C-terminus, sequence (Q86Z14 53-992): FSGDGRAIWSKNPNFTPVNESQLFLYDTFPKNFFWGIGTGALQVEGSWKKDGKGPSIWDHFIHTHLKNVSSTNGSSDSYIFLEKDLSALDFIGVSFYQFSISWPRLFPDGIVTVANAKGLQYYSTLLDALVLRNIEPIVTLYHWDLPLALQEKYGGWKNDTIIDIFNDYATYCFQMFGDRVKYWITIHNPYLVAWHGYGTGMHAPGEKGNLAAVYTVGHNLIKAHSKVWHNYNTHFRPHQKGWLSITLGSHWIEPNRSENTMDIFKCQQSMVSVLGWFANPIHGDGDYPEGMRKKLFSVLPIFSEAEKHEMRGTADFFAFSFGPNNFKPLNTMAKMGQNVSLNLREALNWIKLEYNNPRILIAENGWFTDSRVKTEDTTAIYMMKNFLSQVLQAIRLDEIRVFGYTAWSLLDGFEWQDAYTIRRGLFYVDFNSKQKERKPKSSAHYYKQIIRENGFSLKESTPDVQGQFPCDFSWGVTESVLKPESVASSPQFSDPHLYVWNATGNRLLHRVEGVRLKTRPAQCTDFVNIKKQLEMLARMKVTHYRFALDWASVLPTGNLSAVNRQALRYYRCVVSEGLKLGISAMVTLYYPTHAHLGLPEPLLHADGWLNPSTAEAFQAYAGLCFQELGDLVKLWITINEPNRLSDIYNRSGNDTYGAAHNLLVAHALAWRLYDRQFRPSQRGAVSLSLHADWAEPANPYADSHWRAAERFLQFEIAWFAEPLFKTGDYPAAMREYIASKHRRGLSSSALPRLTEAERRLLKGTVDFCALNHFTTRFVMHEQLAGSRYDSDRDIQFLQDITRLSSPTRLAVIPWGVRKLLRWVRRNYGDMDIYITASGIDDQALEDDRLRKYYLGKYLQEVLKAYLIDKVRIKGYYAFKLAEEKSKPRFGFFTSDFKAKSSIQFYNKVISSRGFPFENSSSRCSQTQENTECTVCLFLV
mature human FGF21 polypeptide fused with the human Fc fragment at the N-terminus (Fc-FGF21), wild type (from UniProt Q9NSA1) 179G-A, sequence (Q9NSA1 29-209, change not shown): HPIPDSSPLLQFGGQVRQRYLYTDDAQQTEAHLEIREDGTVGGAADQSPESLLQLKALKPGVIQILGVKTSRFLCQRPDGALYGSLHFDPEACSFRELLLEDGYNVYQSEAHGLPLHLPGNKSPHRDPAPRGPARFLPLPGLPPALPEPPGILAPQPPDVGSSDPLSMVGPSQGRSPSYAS
mature human FGF21 polypeptide fused with the human Fc fragment at the N-terminus (Fc-FGF21), wild type (from UniProt Q9NSA1) 178P-R, sequence (Q9NSA1 29-209, change not shown): as above
mature human FGF21 polypeptide fused with the human Fc fragment at the N-terminus (Fc-FGF21), wild type (from UniProt Q9NSA1) 176E-A, sequence (Q9NSA1 29-209, change not shown): as above
mature human FGF21 polypeptide fused with the human Fc fragment at the N-terminus (Fc-FGF21), wild type (from UniProt Q9NSA1) 168P-R, sequence (Q9NSA1 29-209, change not shown): as above
mature human FGF21 polypeptide fused with the human Fc fragment at the N-terminus (Fc-FGF21), wild type (from UniProt Q9NSA1) 167L-R, sequence (Q9NSA1 29-209, change not shown): as above
mature human FGF21 polypeptide fused with the human Fc fragment at the N-terminus (Fc-FGF21), wild type (from UniProt Q9NSA1) 170L-A, sequence (Q9NSA1 29-209, change not shown): as above
mature human FGF21 polypeptide fused with the human Fc fragment at the N-terminus (Fc-FGF21), wild type (from UniProt Q9NSA1) 171P-R, sequence (Q9NSA1 29-209, change not shown): as above
mature human FGF21 polypeptide fused with the human Fc fragment at the N-terminus (Fc-FGF21), wild type (from UniProt Q9NSA1) 166P-R, sequence (Q9NSA1 29-209, change not shown): as above
mature human FGF21 polypeptide fused with the human Fc fragment at the N-terminus (Fc-FGF21), wild type (from UniProt Q9NSA1) 180I-A, sequence (Q9NSA1 29-209, change not shown): as above
mature human FGF21 polypeptide fused with the human Fc fragment at the N-terminus (Fc-FGF21), wild type (from UniProt Q9NSA1) 165L-A, sequence (Q9NSA1 29-209, change not shown): as above
mature human FGF21 polypeptide fused with the human Fc fragment at the N-terminus (Fc-FGF21), wild type (from UniProt Q9NSA1) 179G-R, sequence (Q9NSA1 29-209, change not shown): as above
mature human FGF21 polypeptide fused with the human Fc fragment at the N-terminus (Fc-FGF21), wild type (from UniProt Q9NSA1) 178P-A, sequence (Q9NSA1 29-209, change not shown): as above
mature human FGF21 polypeptide fused with the human Fc fragment at the N-terminus (Fc-FGF21), wild type (from UniProt Q9NSA1) 176E-R, sequence (Q9NSA1 29-209, change not shown): as above
mature human FGF21 polypeptide fused with the human Fc fragment at the N-terminus (Fc-FGF21), wild type (from UniProt Q9NSA1) 167L-A, sequence (Q9NSA1 29-209, change not shown): as above
mature human FGF21 polypeptide fused with the human Fc fragment at the N-terminus (Fc-FGF21), wild type (from UniProt Q9NSA1) 169G-A, sequence (Q9NSA1 29-209, change not shown): as above
mature human FGF21 polypeptide fused with the human Fc fragment at the N-terminus (Fc-FGF21), wild type (from UniProt Q9NSA1) 166P-A, sequence (Q9NSA1 29-209, change not shown): as above
mature human FGF21 polypeptide fused with the human Fc fragment at the N-terminus (Fc-FGF21), wild type (from UniProt Q9NSA1) 175P-R, sequence (Q9NSA1 29-209, change not shown): as above
mature human FGF21 polypeptide fused with the human Fc fragment at the N-terminus (Fc-FGF21), wild type (from UniProt Q9NSA1) 170L-R, sequence (Q9NSA1 29-209, change not shown): as above
mature human FGF21 polypeptide fused with the human Fc fragment at the N-terminus (Fc-FGF21), wild type (from UniProt Q9NSA1) 172P-R, sequence (Q9NSA1 29-209, change not shown): as above
mature human FGF21 polypeptide fused with the human Fc fragment at the N-terminus (Fc-FGF21), wild type (from UniProt Q9NSA1) 175P-A, sequence (Q9NSA1 29-209, change not shown): as above

mature human FGF21 polypeptide fused with the human Fc fragment at the N-terminus (Fc-FGF21), wild type (from UniProt Q9NSA1) 163R-A
ratio to parent: 0.9

mature human FGF21 polypeptide fused with the human Fc fragment at the N-terminus (Fc-FGF21), wild type (from UniProt Q9NSA1) 164F-A
ratio to parent: 0.8

mature human FGF21 polypeptide fused with the human Fc fragment at the N-terminus (Fc-FGF21), wild type (from UniProt Q9NSA1) 164F-R
ratio to parent: 3

mature human FGF21 polypeptide fused with the human Fc fragment at the N-terminus (Fc-FGF21), wild type (from UniProt Q9NSA1) 165L-A
ratio to parent: 1

mature human FGF21 polypeptide fused with the human Fc fragment at the N-terminus (Fc-FGF21), wild type (from UniProt Q9NSA1) 166P-A
ratio to parent: 0.6

mature human FGF21 polypeptide fused with the human Fc fragment at the N-terminus (Fc-FGF21), wild type (from UniProt Q9NSA1) 166P-R
ratio to parent: 2.6

mature human FGF21 polypeptide fused with the human Fc fragment at the N-terminus (Fc-FGF21), wild type (from UniProt Q9NSA1) 167L-A
ratio to parent: 0.4

mature human FGF21 polypeptide fused with the human Fc fragment at the N-terminus (Fc-FGF21), wild type (from UniProt Q9NSA1) 167L-R
ratio to parent: 1

mature human FGF21 polypeptide fused with the human Fc fragment at the N-terminus (Fc-FGF21), wild type (from UniProt Q9NSA1) 168P-A
ratio to parent: 0.5

mature human FGF21 polypeptide fused with the human Fc fragment at the N-terminus (Fc-FGF21), wild type (from UniProt Q9NSA1) 168P-R
ratio to parent: 1.2

mature human FGF21 polypeptide fused with the human Fc fragment at the N-terminus (Fc-FGF21), wild type (from UniProt Q9NSA1) 169G-A
ratio to parent: 0.9

mature human FGF21 polypeptide fused with the human Fc fragment at the N-terminus (Fc-FGF21), wild type (from UniProt Q9NSA1) 169G-R
ratio to parent: 2.2

mature human FGF21 polypeptide fused with the human Fc fragment at the N-terminus (Fc-FGF21), wild type (from UniProt Q9NSA1) 170L-A
ratio to parent: 1

mature human FGF21 polypeptide fused with the human Fc fragment at the N-terminus (Fc-FGF21), wild type (from UniProt Q9NSA1) 170L-R
ratio to parent: 1

mature human FGF21 polypeptide fused with the human Fc fragment at the N-terminus (Fc-FGF21), wild type (from UniProt Q9NSA1) 171P-A
ratio to parent: 1.2

mature human FGF21 polypeptide fused with the human Fc fragment at the N-terminus (Fc-FGF21), wild type (from UniProt Q9NSA1) 171P-R
ratio to parent: 1.2

mature human FGF21 polypeptide fused with the human Fc fragment at the N-terminus (Fc-FGF21), wild type (from UniProt Q9NSA1) 172P-A
ratio to parent: 0.5

mature human FGF21 polypeptide fused with the human Fc fragment at the N-terminus (Fc-FGF21), wild type (from UniProt Q9NSA1) 172P-R
ratio to parent: 1.5

mature human FGF21 polypeptide fused with the human Fc fragment at the N-terminus (Fc-FGF21), wild type (from UniProt Q9NSA1) 173A-R
ratio to parent: 0.6

mature human FGF21 polypeptide fused with the human Fc fragment at the N-terminus (Fc-FGF21), wild type (from UniProt Q9NSA1) 174P-A
ratio to parent: 0.6

mature human FGF21 polypeptide fused with the human Fc fragment at the N-terminus (Fc-FGF21), wild type (from UniProt Q9NSA1) 174P-R
ratio to parent: 1.3

mature human FGF21 polypeptide fused with the human Fc fragment at the N-terminus (Fc-FGF21), wild type (from UniProt Q9NSA1) 175P-A
ratio to parent: 0.5

mature human FGF21 polypeptide fused with the human Fc fragment at the N-terminus (Fc-FGF21), wild type (from UniProt Q9NSA1) 175P-R
ratio to parent: 1.4

mature human FGF21 polypeptide fused with the human Fc fragment at the N-terminus (Fc-FGF21), wild type (from UniProt Q9NSA1) 176E-A
ratio to parent: 0.5

mature human FGF21 polypeptide fused with the human Fc fragment at the N-terminus (Fc-FGF21), wild type (from UniProt Q9NSA1) 176E-R
ratio to parent: 1.6

mature human FGF21 polypeptide fused with the human Fc fragment at the N-terminus (Fc-FGF21), wild type (from UniProt Q9NSA1) 177P-A
ratio to parent: 1

mature human FGF21 polypeptide fused with the human Fc fragment at the N-terminus (Fc-FGF21), wild type (from UniProt Q9NSA1) 177P-R
ratio to parent: 1.2

mature human FGF21 polypeptide fused with the human Fc fragment at the N-terminus (Fc-FGF21), wild type (from UniProt Q9NSA1) 178P-A
ratio to parent: 0.7

mature human FGF21 polypeptide fused with the human Fc fragment at the N-terminus (Fc-FGF21), wild type (from UniProt Q9NSA1) 178P-R
ratio to parent: 1.2

mature human FGF21 polypeptide fused with the human Fc fragment at the N-terminus (Fc-FGF21), wild type (from UniProt Q9NSA1) 179G-A
ratio to parent: 1.3

mature human FGF21 polypeptide fused with the human Fc fragment at the N-terminus (Fc-FGF21), wild type (from UniProt Q9NSA1) 179G-R
ratio to parent: 1

mature human FGF21 polypeptide fused with the human Fc fragment at the N-terminus (Fc-FGF21), wild type (from UniProt Q9NSA1) 180I-A
ratio to parent: 0.6
